US20060078537A1

Target: human CCR5 (human) (UniProt P51681)
Experiment: cell-based or functional assay

Sequence of human CCR5 (human) (P51681 whole entry): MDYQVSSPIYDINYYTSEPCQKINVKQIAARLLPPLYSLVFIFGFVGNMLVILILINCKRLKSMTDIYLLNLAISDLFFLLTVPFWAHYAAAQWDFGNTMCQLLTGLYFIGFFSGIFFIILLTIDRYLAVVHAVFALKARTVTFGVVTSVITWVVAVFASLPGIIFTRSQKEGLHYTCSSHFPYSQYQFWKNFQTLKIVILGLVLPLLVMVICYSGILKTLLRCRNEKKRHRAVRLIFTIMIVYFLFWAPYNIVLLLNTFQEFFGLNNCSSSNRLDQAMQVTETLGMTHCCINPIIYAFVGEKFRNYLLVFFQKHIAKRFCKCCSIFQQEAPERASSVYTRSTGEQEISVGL

B1: MC-1 anti-CCR5 monoclonal antibody (antibody, from another filing, V domains shown)
VH: QVQLQQPGAGRVRPGASVKLSCKASGYSFTSYWMNWVKQRPGQGLEWIGMIHPSDSETRLNQKFNDRATLTVDKYSSTAYIQLSSPTSEDSAVYYCARGEYYYGIFDYWGQGTTVTVSS
VL: DIQLTQSPASLSASVGETVTITCRASENIYSYLAWYQQKQGKSPQLLVYNAKTLTEGVPSRFSGSGSGTQFSLKINSLQPEDFGNYFCQHHYDTPRTFGGGTKLEIK
- decrease of cell surface CCR5 on CHO cells expressing CCR5 (FACS, 30 minutes at 37° C.) at 5 µg/ml MC-1: 50%
